# Reference: article PMC5849677 (2018)
# B1: hCR2 (SCR1-4)-Fc (Fc fusion)
# chain: ISCGSPPPILNGRISYYSTPIAVGTVIRYSCSGTFRLIGEKSLLCITKDKVDGTWDKPAPKCEYFNKYSSCPEPIVPGGYKIRGSTPYRHGDSVTFACKTNFSMNGNKSVWCQANNMWGPTRLPTCVSVFPLECPALPMIHNGHHTSENVGSIAPGLSVTYSCESGYLLVGEKIINCLSSGKWSAVPPTCEEARCKSLGRFPNGKVKEPPILRVGVTANFFCDEGYRLQGPPSSRCVIAGQGVAWTKMPVCEE
# Columns and labels:
# Assay in all cases: SPR
# [1] = molecular target: hC3d(s)-Fc (Cys to Ser variant of hC3d-Fc) (human, UniProt P01024 1001-1303)
# hC3dg (aa 955-1303)-Fc = hC3dg (aa 955-1303)-Fc (human, UniProt P01024 955-1303)
# [2] = molecular target: native hC3d (containing 9th cysteine)-Fc (human, UniProt P01024 1001-1303)
# Sequence of native hC3d (containing 9th cysteine)-Fc (P01024 1001-1303): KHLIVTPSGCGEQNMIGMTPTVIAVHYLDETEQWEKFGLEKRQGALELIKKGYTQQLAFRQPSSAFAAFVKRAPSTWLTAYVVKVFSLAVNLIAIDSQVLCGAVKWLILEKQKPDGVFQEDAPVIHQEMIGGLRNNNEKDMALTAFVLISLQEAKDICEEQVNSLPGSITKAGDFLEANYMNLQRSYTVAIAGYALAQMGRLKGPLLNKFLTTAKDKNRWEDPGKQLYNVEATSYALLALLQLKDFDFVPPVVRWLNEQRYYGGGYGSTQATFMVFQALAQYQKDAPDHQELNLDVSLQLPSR
# Sequence of hC3dg (aa 955-1303)-Fc (P01024 955-1303): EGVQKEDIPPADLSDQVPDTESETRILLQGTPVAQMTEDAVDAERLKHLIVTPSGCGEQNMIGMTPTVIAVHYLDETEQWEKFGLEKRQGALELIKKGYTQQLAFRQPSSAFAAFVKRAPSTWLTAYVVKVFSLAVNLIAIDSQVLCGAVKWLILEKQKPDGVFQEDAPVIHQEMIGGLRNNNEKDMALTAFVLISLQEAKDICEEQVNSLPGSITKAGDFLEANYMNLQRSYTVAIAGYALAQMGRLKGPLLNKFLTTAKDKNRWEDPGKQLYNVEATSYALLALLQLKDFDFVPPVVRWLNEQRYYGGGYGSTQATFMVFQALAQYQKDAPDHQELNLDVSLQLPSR
# Sequence of hC3d(s)-Fc (Cys to Ser variant of hC3d-Fc) (P01024 other isoform, or with tags, fused parts or gaps mutant): as the sequence (P01024 1001-1303) above, with C10S counted along it
binder,measurement,setting,value
B1,Kd,[1],7.66 nM
same,Kd,hC3dg (aa 955-1303)-Fc,3.17 nM
same,Kd,[2],5.18 nM
